Laboratory results as given in patent US20250388666A1 (BRIGHAM AND WOMEN S HOSPITAL, published 2025).
Where a chain is given by its changes, count along the chain named. Names and notes keep the numbering of the source.

Biological target: T1, CEACAM1 (Sino Biological) (human, UniProt P13688 35-428, limits assumed)
T1 construct: may be the same as CEACAM1-HIS; also called hCEACAM1; biotinylated soluble CEACAM1
T1 sequence: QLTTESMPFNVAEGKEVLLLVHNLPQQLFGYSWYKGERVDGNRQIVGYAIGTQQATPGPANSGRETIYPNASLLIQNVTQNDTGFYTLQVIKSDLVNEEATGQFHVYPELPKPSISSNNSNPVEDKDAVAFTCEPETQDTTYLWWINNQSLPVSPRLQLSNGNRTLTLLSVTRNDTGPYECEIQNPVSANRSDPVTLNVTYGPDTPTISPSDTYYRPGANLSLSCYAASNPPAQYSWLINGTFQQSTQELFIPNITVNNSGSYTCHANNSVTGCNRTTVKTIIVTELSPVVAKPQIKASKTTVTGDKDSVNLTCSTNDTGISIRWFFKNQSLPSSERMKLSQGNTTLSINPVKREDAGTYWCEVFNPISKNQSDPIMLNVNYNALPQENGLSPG
Experiment: SPR single-cycle
Description: To assess the binding of the humanized affinity matured IgGs, single cycle kinetics analysis was performed on crude supernatants using a Biacore T200 running Biacore T200 Control Software V2.0.1 and Biacore T200 Evaluation Software V3.0 (Uppsala, Sweden). Antibodies were diluted in HBS-P+ (GE Healthcare) to a final concentration of […]. At the start of each cycle, antibodies were loaded onto Fc2, Fc3 and Fc4 of the Protein A chip (GE Healthcare). IgGs were captured at a flow rate of 10 μl/min to give an immobilization level (RL) of ˜100 RU (a level calculated to obtain an Rmax of ˜50-150 RU once the analyte is bound). The surface was then allowed to stabilize. Single cycle kinetics data was obtained with CEACAM1 as the analyte at a flow rate of […] to minimize any potential mass transfer effects. Multiple repeats with the parent (VH2 N56Q/Vκ4 S27(f)A) antibody were performed to check the stability of the surface and analyte over the kinetic cycles. The signal from the reference channel Fc1 (no antibody) was subtracted from that of Fc2, Fc3 and Fc4 to correct for differences in non-specific binding to the reference surface. A three point, two-fold dilution range from 25 nM to 100 nM CEACAM 1 without regeneration between each concentration was used. The signal from each antibody blank run (no CEACAM1) was subtracted to correct for differences in surface stability. The association phase for the three injections of increasing concentrations of CEACAM1 was monitored for 200 seconds each time and a single dissociation phase was measured for 300 seconds following the last injection of CEACAM1. Regeneration of the Protein A surface was conducted using two injections of 10 mM glycine-HCL pH 1.5 followed by a stabilization period of 240 seconds.

B1: Parent VH/L16 (antibody, IgG4, V domains shown)
VH: EVQLLESGGGLVQPGGSLRLSCAASGFSFSDYYLYWVRQAPGKGLEWVATISVGGGQTSYADSVKGRFTISRDNSKNTLYLQMNSLRAEDTAMYYCTRGLYYGPAWFAYWGQGTLVTVSS
VL: DIVMTQSPDSLAVSLGERATINCKSSQSLLNSANQKNYLAWYQQKPGQPPKLLIYFASTRESGVPDRFSGSGSGTDFTLTISSLQAEDVAVYYCQSHYPYPFTFGGGTKVEIK
notes: IgG4 S241P, kappa
- Kd: 61 nM
- fold better than Parent (KD): 2.62 fold

B2: He1/L4 #1 (antibody, IgG4, V domains shown)
VH: B1 VH with A105S
VL: B1 VL with Y98F, P101Y, F102Y
notes: IgG4 S241P, kappa
- Kd: 429 nM
- fold better than Parent (KD): 1.28 fold

B3: He3/L2 (antibody, IgG4, V domains shown)
VH: B1 VH with G99A, Y101T, F107L
VL: B1 VL with Y100F, F102Y
notes: IgG4 S241P, kappa
- Kd: 86 nM
- fold better than Parent (KD): 1.85 fold

B4: He1/L16 (antibody, IgG4, V domains shown)
VH: B1 VH with A105S
VL: B1 VL
notes: IgG4 S241P, kappa
- Kd: 341 nM
- fold better than Parent (KD): 1.62 fold

B5: He4/L2 (antibody, IgG4, V domains shown)
VH: B1 VH with G99A
VL: B1 VL with Y100F, F102Y
notes: IgG4 S241P, kappa
- Kd: 76 nM
- fold better than Parent (KD): 2.09 fold

B6: He1/L20 (antibody, IgG4, V domains shown)
VH: B1 VH with A105S
VL: B1 VL with Y98F, F102L
notes: IgG4 S241P, kappa
- Kd: 264 nM
- fold better than Parent (KD): 2.09 fold

B7: He1/L1 (antibody, IgG4, V domains shown)
VH: B1 VH with A105S
VL: B1 VL with Y100F, P101Y, F102Y
notes: IgG4 S241P, kappa
- Kd: 568 nM
- fold better than Parent (KD): 0.97 fold

B8: He3/L6 (antibody, IgG4, V domains shown)
VH: B1 VH with G99A, Y101T, F107L
VL: B1 VL with Y100F, P101S
notes: IgG4 S241P, kappa
- Kd: 93 nM
- fold better than Parent (KD): 1.72 fold

B9: He1/L3 (antibody, IgG4, V domains shown)
VH: B1 VH with A105S
VL: B1 VL with Y98F, Y100F
notes: IgG4 S241P, kappa
- Kd: 263 nM
- fold better than Parent (KD): 2.1 fold

B10: He1/L19 (antibody, IgG4, V domains shown)
VH: B1 VH with A105S
VL: B1 VL with Y98I, P99Y, Y100P, P101N
notes: IgG4 S241P, kappa
- Kd: 996 nM
- fold better than Parent (KD): 0.55 fold

B11: He4/L4 #1 (antibody, IgG4, V domains shown)
VH: B1 VH with G99A
VL: B1 VL with Y98F, P101Y, F102Y
notes: IgG4 S241P, kappa
- Kd: 83 nM
- fold better than Parent (KD): 1.91 fold

B12: He4/L4#2 (antibody, IgG4, V domains shown)
VH: B1 VH with G99A
VL: B1 VL with F102Y
notes: IgG4 S241P, kappa
- Kd: 127 nM
- fold better than Parent (KD): 4.34 fold

B13: He3/L18 (antibody, IgG4, V domains shown)
VH: B1 VH with G99A, Y101T, F107L
VL: B1 VL with Y98F
notes: IgG4 S241P, kappa
- Kd: 82 nM
- fold better than Parent (KD): 1.94 fold

B14: He4/L1 (antibody, IgG4, V domains shown)
VH: B1 VH with G99A
VL: B1 VL with Y100F, P101Y, F102Y
notes: IgG4 S241P, kappa
- Kd: 64 nM
- fold better than Parent (KD): 2.49 fold

B15: He3/L17 (antibody, IgG4, V domains shown)
VH: B1 VH with G99A, Y101T, F107L
VL: B1 VL with F102Y
notes: IgG4 S241P, kappa
- Kd: 83 nM
- fold better than Parent (KD): 1.91 fold

B16: He3/L16 (antibody, IgG4, V domains shown)
VH: B1 VH with G99A, Y101T, F107L
VL: B1 VL
notes: IgG4 S241P, kappa
- Kd: 72 nM
- fold better than Parent (KD): 2.22 fold

B17: He3/L19 (antibody, IgG4, V domains shown)
VH: B1 VH with G99A, Y101T, F107L
VL: B1 VL with Y98I, P99Y, Y100P, P101N
notes: IgG4 S241P, kappa
- Kd: 135 nM
- fold better than Parent (KD): 1.18 fold

B18: He3/L4#2 (antibody, IgG4, V domains shown)
VH: B1 VH with G99A, Y101T, F107L
VL: B1 VL with F102Y
notes: IgG4 S241P, kappa
- Kd: 130 nM
- fold better than Parent (KD): 4.24 fold

B19: He4/L3 (antibody, IgG4, V domains shown)
VH: B1 VH with G99A
VL: B1 VL with Y98F, Y100F
notes: IgG4 S241P, kappa
- Kd: 55 nM
- fold better than Parent (KD): 2.87 fold

B20: He1/L4#2 (antibody, IgG4, V domains shown)
VH: B1 VH with A105S
VL: B1 VL with F102Y
notes: IgG4 S241P, kappa
- Kd: 301 nM
- fold better than Parent (KD): 1.83 fold

B21: He1/L17 (antibody, IgG4, V domains shown)
VH: B1 VH with A105S
VL: B1 VL with F102Y
notes: IgG4 S241P, kappa
- Kd: 374 nM
- fold better than Parent (KD): 1.47 fold

B22: He3/Parent VL (antibody, IgG4, V domains shown)
VH: B1 VH with G99A, Y101T, F107L
VL: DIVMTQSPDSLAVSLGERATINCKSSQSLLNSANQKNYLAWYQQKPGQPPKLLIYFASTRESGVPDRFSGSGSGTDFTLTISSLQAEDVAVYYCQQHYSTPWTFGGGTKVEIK
notes: IgG4 S241P, kappa
- Kd: 78 nM
- fold better than Parent (KD): 2.03 fold

B23: He3/L1 (antibody, IgG4, V domains shown)
VH: B1 VH with G99A, Y101T, F107L
VL: B1 VL with Y100F, P101Y, F102Y
notes: IgG4 S241P, kappa
- Kd: 62 nM
- fold better than Parent (KD): 2.57 fold

B24: He3/L4 #1 (antibody, IgG4, V domains shown)
VH: B1 VH with G99A, Y101T, F107L
VL: B1 VL with Y98F, P101Y, F102Y
notes: IgG4 S241P, kappa
- Kd: 99 nM
- fold better than Parent (KD): 1.61 fold

B25: He1/Parent VL (antibody, IgG4, V domains shown)
VH: B1 VH with A105S
VL: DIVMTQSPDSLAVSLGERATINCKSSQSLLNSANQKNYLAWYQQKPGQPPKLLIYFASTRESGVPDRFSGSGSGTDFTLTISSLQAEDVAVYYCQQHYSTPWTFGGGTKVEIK
notes: IgG4 S241P, kappa
- Kd: 544 nM
- fold better than Parent (KD): 1.01 fold

B26: He4/L6 (antibody, IgG4, V domains shown)
VH: B1 VH with G99A
VL: B1 VL with Y100F, P101S
notes: IgG4 S241P, kappa
- Kd: 72 nM
- fold better than Parent (KD): 2.22 fold

B27: He4/L5 (antibody, IgG4, V domains shown)
VH: B1 VH with G99A
VL: B1 VL with Y100F, P101A
notes: IgG4 S241P, kappa
- Kd: 68 nM
- fold better than Parent (KD): 2.36 fold

B28: He3/L5 (antibody, IgG4, V domains shown)
VH: B1 VH with G99A, Y101T, F107L
VL: B1 VL with Y100F, P101A
notes: IgG4 S241P, kappa
- Kd: 95 nM
- fold better than Parent (KD): 1.68 fold

B29: He3/L3 (antibody, IgG4, V domains shown)
VH: B1 VH with G99A, Y101T, F107L
VL: B1 VL with Y98F, Y100F
notes: IgG4 S241P, kappa
- Kd: 163 nM
- fold better than Parent (KD): 0.98 fold

B30: He1/L18 (antibody, IgG4, V domains shown)
VH: B1 VH with A105S
VL: B1 VL with Y98F
notes: IgG4 S241P, kappa
- Kd: 326 nM
- fold better than Parent (KD): 1.69 fold

B31: He1/L2 (antibody, IgG4, V domains shown)
VH: B1 VH with A105S
VL: B1 VL with Y100F, F102Y
notes: IgG4 S241P, kappa
- Kd: 487 nM
- fold better than Parent (KD): 1.13 fold

B32: He1/L5 (antibody, IgG4, V domains shown)
VH: B1 VH with A105S
VL: B1 VL with Y100F, P101A
notes: IgG4 S241P, kappa
- Kd: 307 nM
- fold better than Parent (KD): 1.8 fold

B33: He1/L6 (antibody, IgG4, V domains shown)
VH: B1 VH with A105S
VL: B1 VL with Y100F, P101S
notes: IgG4 S241P, kappa
- Kd: 402 nM
- fold better than Parent (KD): 1.37 fold
